Two molecules from US20260274981A1 (VIB VZW, published 2026) can be followed below.

One may read the Kd as the constant that tells how readily two partners part at equilibrium. A word on the koff: it is the rate constant with which the complex falls apart. The term kon denotes the second-order rate constant of association.

The target in assay [1] is T1, recombinant human TfR (2474-TR, R&D Systems), biotinylated (human, UniProt P02786 89-760, biotinylated with EZ-Link NHS-PEG4-Biotinylation Kit).
T1 construct: Bought protein; also called immobilized recombinant human TfR; biotinylated human TfR
Briefly: SPR (Biacore T200), biotinylated human TfR captured on SA chip, VHH as analyte, single cycle kinetics. An excerpt:
(§1) Phage libraries generated after 4 biweekly immunizations of two different camelids, underwent two rounds of pannings on CHO cell lines overexpressing either cynomolgus TfR in the first round or human TfR in the second round. Output libraries were screened with flow cytometry to find binders to human TfR overexpressing cells (FIG. 1A). […] Binding kinetics to recombinant human and cynomolgus TfR were further characterized with Surface Plasmon Resonance (SPR).
Surface Plasmon Resonance (SPR) was used to measure the interaction between VHHs and human or cynomolgus TfR receptor. Human TfR (2474-TR, R&D Systems) and cynomolgus TfR (90253-C07H, Sino Biological) were biotinylated with the EZ-Link NHS-PEG4-Biotinylation Kit (ThermoFischer Scientific) according to the manufacturer instructions. The binding experiments were performed at 25° C. on a Biacore T200 instrument (Cytiva, Uppsala, Sweden) in HBS-EP+ buffer (10 mM HEPES, 150 mM NaCl, 3 mM EDTA and 0.05% v/v Surfactant P20). Biotinylated human TfR and cynomolgus TfR were captured on a SA sensor chip (Cytiva) at a density of around 250 RU. Increasing concentrations of VHHs were sequentially injected in one single cycle at a flow rate of 30 μl/min. The dissociation was monitored for 20 min. […] A reference flow was used as a control for non-specific binding and refractive index changes. Several buffer blanks were used for double referencing. […]

The target of assay [2] is T2, recombinant cynomolgus TfR (90253-C07H, Sino Biological), biotinylated (cynomolgus monkey, UniProt Q5RDH6 89-760 (Pongo abelii entry), biotinylated with EZ-Link NHS-PEG4-Biotinylation Kit).
T2 construct: Bought protein; also called immobilized recombinant cynomolgus TfR
T2 chain: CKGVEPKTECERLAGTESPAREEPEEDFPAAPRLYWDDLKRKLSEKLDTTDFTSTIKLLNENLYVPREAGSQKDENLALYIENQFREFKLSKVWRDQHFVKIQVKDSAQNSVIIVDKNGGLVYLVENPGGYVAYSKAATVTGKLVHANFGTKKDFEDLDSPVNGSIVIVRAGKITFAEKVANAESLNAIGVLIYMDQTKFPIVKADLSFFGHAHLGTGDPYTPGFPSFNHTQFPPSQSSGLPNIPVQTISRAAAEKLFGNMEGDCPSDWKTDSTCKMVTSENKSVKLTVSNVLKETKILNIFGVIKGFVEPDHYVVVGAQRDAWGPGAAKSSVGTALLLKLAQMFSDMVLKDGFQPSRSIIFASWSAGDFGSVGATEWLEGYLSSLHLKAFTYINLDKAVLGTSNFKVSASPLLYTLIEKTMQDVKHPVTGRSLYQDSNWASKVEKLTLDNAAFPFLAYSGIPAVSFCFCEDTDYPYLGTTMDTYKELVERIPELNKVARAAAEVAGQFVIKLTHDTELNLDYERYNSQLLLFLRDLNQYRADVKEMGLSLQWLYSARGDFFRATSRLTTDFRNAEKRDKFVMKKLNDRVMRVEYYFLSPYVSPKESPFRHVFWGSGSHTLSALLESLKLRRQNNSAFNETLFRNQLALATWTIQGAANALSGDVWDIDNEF
Description: SPR (Biacore T200), biotinylated cynomolgus TfR captured on an SA chip as ligand, VHH as analyte, single cycle kinetics, 1:1 binding model.
Description: as §1
Surface Plasmon Resonance (SPR) was used to measure the interaction between VHHs and human or cynomolgus TfR receptor. Human TfR (2474-TR, R&D Systems) and cynomolgus TfR (90253-C07H, Sino Biological) were biotinylated with the EZ-Link NHS-PEG4-Biotinylation Kit (ThermoFischer Scientific) according to the manufacturer instructions. The binding experiments were performed at 25° C. on a Biacore T200 instrument (Cytiva, Uppsala, Sweden) in HBS-EP+ buffer (10 mM HEPES, 150 mM NaCl, 3 mM EDTA and 0.05% v/v Surfactant P20). Biotinylated human TfR and cynomolgus TfR were captured on a SA sensor chip (Cytiva) at a density of around 250 RU. Increasing concentrations of VHHs were sequentially injected in one single cycle at a flow rate of 30 μl/min. The dissociation was monitored for 20 min. […] A reference flow was used as a control for non-specific binding and refractive index changes. Several buffer blanks were used for double referencing. Binding affinities (KD) and kinetic rate constants (kₒₙ, koff) were derived after fitting the experimental data to the 1:1 binding model with the Biacore T200 Evaluation Software 3.1 using the single cycle kinetic procedure. Each interaction was repeated a least three times.
(SPR reads the build-up and loss of mass on a sensor chip optically.)

B1: BBB00515 (VHH)
VHH: QVQLQESGGGLVQAGGSLRLSCAASGSIFSINAMGWYRQAPGKQRELVAVITSGGSTIYADSVKGRFTISRDNAENTVYLQMNSLKPEDTAVYYCNAHVGLKVPTIQELSLGFGSWGQGTQVTVSS
notes: Lead VHH expressed in E. coli TG1 and purified by IMAC; detected with anti-FLAG antibody in flow cytometry; also called BBB00515 VHH; not shown: C-terminal 3xFlag/6xHis tag from expression vector pBDS119
As to B1, the dissociation constant Kd in assay [1] was found to be 1180 nM. Besides, in assay [2], the koff stood at 0.00942 s⁻¹ and the association rate constant (kon) turned out to be 149000 M⁻¹ s⁻¹.

B2: BBB00533 (VHH)
VHH: QVQLQESGGGSVQPGGSLRLSCTASGRTFNYAMGWFRQAPGKNREFVATIDWKDGSSYYLDSVRGRFTIERDDAKNTVYLQMNSLKPEDAAVYTCAVGDGDYCSTYTCAAEVEYDYWGQGTQVTVSS
notes: Lead VHH expressed in E. coli TG1 and purified by IMAC; detected with anti-FLAG antibody in flow cytometry; also called BBB00533 VHH; not shown: C-terminal 3xFlag/6xHis tag from expression vector pBDS119
Consider B2, for which, in assay [1], the Kd was 207 nM. In assay [2], the koff came to 0.0118 s⁻¹ and the on-rate constant (kon) came out at 115000 M⁻¹ s⁻¹.
